Results from patent publication US20210388065A1 (published 2021).

B1: 105-9 antibody (antibody, V domains shown)
VH: EVQLVESGGGLVKPGRSLRLSCTASGFTFGDYAMSWFRQAPGKGLEWVGFIRSKAYGWTTQYAASVKGRFTISRDDSKSIAYLQMKSLNSEDTAVYYCTRDPWGTTYFDYWGQGTLVTVSS
VL: EIVMTQSPATLSVSPGERATLSCRASQSVSSNLAWYQQKPGQGPRLLIYGASTRATGVPARFSGSGSGTDFTLTISSLQSEDFAIYYCQHYNNWFTFGQGTKVEIK
B2: 105-38 antibody (antibody, V domains shown)
VH: EVQLVESGGGLVQPGGSLRLSCAASGFTFSSYWMHWVRQAPGKGLVWVSRINSDGSSTSYADSVKGRFTISRDNAKNTLYLQMNSLRAEDTAVYYCARVQWLRGEFDYWGQGTLVTVSS
VL: DVVLTQPHSVSESPGKTVTISCTGSSGSIASNYVQWYQQRPGSAPTTVIYEDNQRPSGVPDRFSGSIDSSSNSASLTISGLKTEDEADYYCQSYDSSTDVVFGGGTELTVL
B3: 105-43 antibody (antibody, V domains shown)
VH: EVQLVESGGGLVQPGGSLRLSCAASGFTFSSYDMHWVRQATGKGLEWISAIGTTGDIYYADSVKGRFTISRENAENSLYLQMNSLRAGDTAVYYCARYRGAFDVWGQGTMVTVSS
VL: EIVMTQSPVTLSLSPGERATLSCRASQSVGTYLAWYQQKPGQAPRLLIYDASNRATRIPARFSGSGSGTDFTLTISSLEPEDFAVYYCQQGSNWPLTFGGGTKVEIK
B4: 414-1 antibody (antibody, V domains shown)
VH: QVQLVQSGAEVKKPGASVKVSCKASGYTFTSYYMHWVRQAPGQGLEWMGIINPSGGSTSYAQKFQGRVTMTRDTSTSTVYMELSSLRSEDTAVYYCARGALGCSSTSCYPNNFDYWGQGTLVTVSS
VL: not shown
B5: 414-3-2 antibody (antibody, V domains shown)
VH: QVQLVESGGGVVQPGRSLRLSCAASGFTFSSYAMHWVRQAPGKGLEWVALISYDGSNKYYADSVKGRFTISRDNSKNTLYLQMNSLRAEDTAVYYCARDGGGWFDPWGQGTLVTVSS
VL: QTVVTQPASVSGSPGQSITISCTGTSSDVGGYNYVSWYQQHPGKAPKLMIYDVSKRPSGVSNRFSGSKSGNTASLTISGLQAEDEADYYCSSYTSSSPWVFGGGTELTVL

Columns and labels:
[1] = target: T1, SARS-CoV-2 Spike protein (Receptor Binding Domain, RBD) (UniProt P0DTC2 331-524); test: ELISA
[2] = target: T1, SARS-CoV-2 Spike protein (Receptor …); test: ELISA; remark: listed apart in the source

Row | Binder | IC50 [1] [nM] | EC50 [2] [nM]
1 | B1 | 25.2 | 15.1
2 | B2 | 0.598 | 0.425
3 | B3 | 59 | 12.1
4 | B4 | 6.68 | 1.26
5 | B5 |  | 6.66
